Source: the nanobody polyreactivity screen of Harvey et al. (2022)

Experiment: yeast display, Sf9 membrane polyspecificity reagent, FACS + sequencing; frameworks hold sequencing errors
Method in brief: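 In a synthetic yeast display library (Saccharomyces cerevisiae BJ5465), nanobody expression was induced with galactose for 36–48 hours. FACS gates were set low and high (top ~1%) using anti-HA fluorescence for expression and streptavidin fluorescence for binding of the Sf9 membrane reagent. Each polyreactivity label is drawn from the gate of origin.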

Row | Sequence | polyreactivity (PSR sort gate)
1 | QVQLVESGGGLVQAGGSLRLSCADSGRIFADNAMGWYRHAPGKERELVAAITWSGGITFYADSVKGRFTISRDNAKKTVYLQMNSLKPEDTAVYYCATYGHRDTPYNYWGQGTQVTVSS | low polyreactivity
2 | QVQLVESGGGLVQAGGSLRLSCAASGRTFYRYAMGWYRQAPGKERELVAAITRRSGNTYYADSVKGRFTISRDNAKNTVYLQMNSLKPEDTAVYYCAADPETWSPHYESLGYYWGQGTQVTVSS | high polyreactivity
3 | QVQLVESGGGLVQAGGSLRLSCAASGSIFYRNVMGWYRQAPGKERELVAAITWSGGSTYYADSVKGRFTISRDNAKNTVYLQMNSLKPEDTAVYYCAAASKGTYRGKVSGYYYWGQGTQVTVSS | high polyreactivity
4 | QVQLVESGGGLVQAGGSLRLSCAASGFTFSTNAMGWYRPAPGKEREVVAAITWRGGSTYYADSVKGRFTISRDNAKNTVYLQMNSLKPEDTAVYYCARRYRGSHVSYYKKFDYWGQGTQVTVSS | low polyreactivity
5 | QVQLVESGGGLVQAGGSLRLSCAASGFTFPAYVMRWYRQAPGKERELVAAISKSGGSTYYADSVKGRFTISRDNAKNTVYLQMNCLKPEDTAVYYCAKYWVTRRFQYDYWGQGTQVTVSS | high polyreactivity
6 | QVQLVESGGCLVQAGGSLRLSCAASGSTFHYNAMGWYRQAPGKERELVATISWSGGSTYYADSVKGRFTISRDNAKNTVYLQMNSLKPEDTAVYYCAARYSGYRGSFYGRHGGKYYYWGQGTQVTVSS | high polyreactivity
7 | KGQLVESGGGLVQEGGSLRLSCAASGNTFVNNHMVWYRQAPGEERELVAAISRRAGSTYYADSVKGRFTISRENAKNTVYIQKNSLKPEENAVYYCAARGSRYYYVQGASKYDYWGQGTQVTVSS | high polyreactivity
8 | QVQLVESGGCLVQAGGSLRLSCAASGSIFYNNAMGWYRQAPGKERELVASSTGGGSTYADSVKGRFTISRDNAKNRVYVQMNSLKPEDTAVYYCAVGRYFVRYDYWGQGSQVTVSS | low polyreactivity
9 | QVQLVESGGGLVQAGGSLRLSCAASGSISSVNAMGWYREAPGKERELVATISSGGSTYADSVKGRFTISRDNAKNTVYLQMNSLKPEDTAVYYCATYFVAYTFYYRWYRSYASFYYWGQGTQVTVSS | low polyreactivity
10 | QVQLVESGGGLVQAGGSLRLSCAASGSTFSSLIMGWYRQAPGKERELVAAISRSGGRTYYADSVKGRFTISRDNAKNTVYLQMNSLKPEDTAVYYCAAPWFRDTRGYSLYDYWGQGTQVTVSS | high polyreactivity
11 | QVQLVESGGGLVQAGGSLRLSCAASGSTFVLNAMGWYRQAPGKERELVAAITGSGSTKYADSVKGLFTISRDNAKNTVYLQMNSLKPEDTAVYYCATAAVYPIPFGYWGQGTQVTVSS | low polyreactivity
12 | QVQLVESGGGLVQAGGSLRLSCAASGSTFTIYAMGWYRQAPGKERELVAAISSGGGDTDYADSVKGRFTISRDNAKNTVYLQMNSLKPEDTAVYYCNAEGTSPRTGYDYWGQGTQVTVSS | low polyreactivity
13 | QVQLVESGGGLVQAGGSLRLSCAASGRISSSYAMGWYRQAPGKERELVAAIDNSDDTTYYADSVKGRFTISLDNAKNTVYLQMNSLKPEDTAVYSCATLVYSSELGYWGQGTQVTVSS | high polyreactivity
14 | QVQLVESGGGLVQAGGSLRLSCAASGSTFAYNAMGWYRQAPGKERELVASITVSVGSTYYADSVKGRFTISRDNAKNTVYLQMNSLKPEDTAVYYCAARVTRRSSTYWVPRTGYYYWGQGTQVTVSS | low polyreactivity
15 | QVQLVESGGGLVQAGGSLRLSCAASGSTFSTYAMGWYRQAPGKERELVASISGRGSSTDYADSVKGRFTISRDNAKNTVYLQMNSLKPEDTAVYYCNRRGYRTSTTYRRYNYWGQGTQVTVSS | high polyreactivity
16 | QVQLVESGGGLVQAGGSLRLSCAASGSIFTVYVIGGYRQAPGKEREFVAAITYSGGRTDYADSVKGRFTISRDNAKNTVYLQMNSLKPEDTAVYYCAKVRDVLWRFNYWGQGTQVTVSS | high polyreactivity
17 | QVQLVESGGGLVKAGGSLRLSCAASGSTFDSYAMGWYRQPPGKERELVASITSNDGSTSYADSVKGRFTISRDNAKNTVYLQMNSLKPEDTAVYYCAASSLYSDYGHRNLADGPYDYWGQGTQVTVSS | low polyreactivity
